# Positions count from the first letter of the chain named.
# B1: G14 (antibody, V domains shown)
# VH: QVQLLESGGGVVQPGRSLRLSCAASGFTFSSYAMHWVRQAPGKGLEWVAFISHDGNRNSYADSVRGRFTISRDNSKNTLYLQMNSLRAEDTAVYYCARDLGYYNGFSYWGQGTLVTVSA
# VL: DIVMTQSPSSVSASVGDRVTITCRASQGISSWLAWYQQKPGKAPKLLIYAASSLQSGVPSRFSGSGSGTDFTLTISSLQPEDFATYYCQQANSFPPTFGPGTKVDIK
# notes: Full human antibody from a Fab phage library; Tested as a mAb (detected with anti-human IgG, captured on Protein A); also called FAP-G14; FAP-G14-Bio (biotin-conjugated form)
# B2: J40 (antibody, V domains shown)
# VH: EVQLLESGGGLVQPGGSLRLSCAASGFTFSSYAMSWVRQAPGKGLEWVSAISGSGGSTYYADSVKGRFTISRDNSKNTLYLQMNSLRTDDTAVYYCARDLTTSTGWESWGQGTLVTVSA
# VL: B1 VL with D1N, V3Q, P100Q, V104L, D105E
# notes: Tested as a mAb; also called FAP-J40; FAP-J40-Bio (biotin-conjugated form)
# B3: I37 (antibody, V domains shown)
# VH: QLQLVESGGGLVQPGGSLRLSCAASGFTFSSYAMSWVRQAPGKGLEWVSAISGSGGSTYYADSVKGRFTISRDNSKNTLYLQMNSLRAEDTAVYYCARDKPWGGSFDYWGQGTLVTVSA
# VL: B1 VL with V3Q, M4L, V11L, P96V
# notes: Tested as a mAb; also called FAP-I37
# B4: I30 (antibody, V domains shown)
# VH: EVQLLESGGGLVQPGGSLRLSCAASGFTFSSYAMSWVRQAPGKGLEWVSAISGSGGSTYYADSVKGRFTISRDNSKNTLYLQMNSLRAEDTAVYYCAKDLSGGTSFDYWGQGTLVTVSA
# VL: B1 VL with D1A, V3R, M4L, P100G, D105E
# notes: Tested as a mAb; also called 130; FAP-I30
# Experiments:
# [1] = target: T1, human FAPα-His tag (Sino biological) (human, UniProt Q12884 26-760); experiment: competitive ELISA on coated human FAPα; competitor (detected): FAP-I38-Bio
# T1 construct: Bought protein; also called human FAPα-His protein; not shown: His tag
# T1 sequence (looked up): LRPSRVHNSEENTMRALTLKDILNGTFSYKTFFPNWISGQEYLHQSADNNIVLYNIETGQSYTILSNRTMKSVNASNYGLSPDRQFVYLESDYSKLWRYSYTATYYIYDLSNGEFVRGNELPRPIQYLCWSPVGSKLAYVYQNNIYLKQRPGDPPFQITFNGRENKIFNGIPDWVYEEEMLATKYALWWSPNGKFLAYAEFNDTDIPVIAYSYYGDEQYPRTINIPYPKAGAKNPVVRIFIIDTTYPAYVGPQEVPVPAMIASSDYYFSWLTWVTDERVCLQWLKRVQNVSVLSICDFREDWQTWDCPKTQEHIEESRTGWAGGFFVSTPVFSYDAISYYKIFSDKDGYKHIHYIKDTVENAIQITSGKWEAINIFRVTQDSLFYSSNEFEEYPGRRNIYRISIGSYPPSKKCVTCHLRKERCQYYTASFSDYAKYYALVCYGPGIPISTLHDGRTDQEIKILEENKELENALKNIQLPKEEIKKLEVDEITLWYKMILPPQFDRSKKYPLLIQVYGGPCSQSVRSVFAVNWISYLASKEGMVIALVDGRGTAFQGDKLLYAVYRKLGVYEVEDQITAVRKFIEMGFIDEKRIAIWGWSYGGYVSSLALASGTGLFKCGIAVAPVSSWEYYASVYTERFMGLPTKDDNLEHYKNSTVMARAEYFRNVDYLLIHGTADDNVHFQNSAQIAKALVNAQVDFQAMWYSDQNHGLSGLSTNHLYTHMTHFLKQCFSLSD
# Method: (§1) Briefly, microtiter plates were coated with human FAPα proteins at 0.5 μg/ml in PBS, 100 μl/well at 4° C. overnight, then blocked with 150 μl/well of 1% BSA. Serial dilutions of chimeric antibodies as well as biotin-conjugated reference mAb were added to each well and incubated for 1 hour at RT. The plates were washed with PBS/Tween and then incubate with streptavidin-HRP for 15 mins at RT. After washing, the plates were developed with TMB substrate and analyzed by spectrophotometer at OD 450 nm. According to the competition ability to reference mAbs (Benchmark, or “BMK”), all tested FAPα mAbs binds to the similar epitope as shown in Table 5.
# [2] = target: T2, mouse FAPα-His protein (mouse, UniProt P97321 26-761, limits assumed); experiment: ELISA, plate coated with mouse FAPα-His, anti-human IgG-HRP, OD 450 nm
# T2 construct: not shown: His tag
# T2 sequence (looked up): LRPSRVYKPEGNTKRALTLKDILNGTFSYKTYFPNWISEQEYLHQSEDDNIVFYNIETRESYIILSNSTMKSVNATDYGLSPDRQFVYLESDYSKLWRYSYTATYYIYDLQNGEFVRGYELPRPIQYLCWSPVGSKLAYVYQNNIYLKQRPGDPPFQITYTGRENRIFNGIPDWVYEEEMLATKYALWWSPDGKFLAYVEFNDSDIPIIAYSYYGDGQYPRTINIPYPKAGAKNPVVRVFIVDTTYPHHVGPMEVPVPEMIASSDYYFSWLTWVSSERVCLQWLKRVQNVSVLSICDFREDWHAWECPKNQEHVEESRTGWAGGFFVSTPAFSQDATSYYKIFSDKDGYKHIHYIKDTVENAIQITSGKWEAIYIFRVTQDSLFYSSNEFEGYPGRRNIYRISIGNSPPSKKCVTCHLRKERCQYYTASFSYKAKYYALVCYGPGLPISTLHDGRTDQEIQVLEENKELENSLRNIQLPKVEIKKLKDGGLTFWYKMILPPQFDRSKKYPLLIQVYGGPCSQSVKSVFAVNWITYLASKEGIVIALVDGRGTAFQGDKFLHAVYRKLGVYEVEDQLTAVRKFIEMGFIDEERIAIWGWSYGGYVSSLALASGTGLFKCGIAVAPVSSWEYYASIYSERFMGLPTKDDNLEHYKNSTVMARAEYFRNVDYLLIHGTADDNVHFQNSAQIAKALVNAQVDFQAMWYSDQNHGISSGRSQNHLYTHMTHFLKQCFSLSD
# Method: (§2) Briefly, microtiter plates were coated with mouse FAPα-His protein at 0.5 ug/ml in PBS, 100 μl/well at 4° C. overnight, then blocked with 150 μl/well of 1% BSA. Three-fold dilutions of tested antibodies starting from 1 μg/ml were added to each well and incubated for 1 hour at 37° C. The plates were washed with PBS/Tween and then incubated with Anti-Human IgG (H&L) (GOAT) Antibody Peroxidase Conjugated for 30 mins at 37° C. After washing, the plates were developed with TMB substrate and analyzed by spectrophotometer at OD 450 nm.
# [3] = target: T1, human FAPα-His tag (Sino biological); experiment: competitive ELISA on coated human FAPα; competitor (detected): FAP-G14-Bio
# Method: (§3) Competitive ELISA was carried out to classify the FAPα mAbs based on the binding epitope to human FAPα.
# as §1
# [4] = target: T1, human FAPα-His tag (Sino biological); experiment: ELISA, coated human FAPα-His
# Method: as §2, with “human” for “mouse”, “nm. […] FAP-4B9 clone from Roche was served as positive control which labeled as FAPα-BMK.” for “nm.”
# [5] = target: T1, human FAPα-His tag (Sino biological); experiment: competitive ELISA on coated human FAPα; competitor (detected): FAP-I37-Bio
# Method: as §3, §1
Binder,OD 450 nm [1] [OD 450 nm],binding result [2],OD 450 nm [3] [OD 450 nm],EC50 [4] [ng/mL],OD 450 nm [5] [OD 450 nm]
B1,0.658,no binding (tested: 1000 ng/ml),0.209,4.64,0.457
B2,0.527,no binding (tested: 1000 ng/ml),0.167,3.87,0.435
B3,0.703,–,0.224,5.4,0.602
B4,0.324,no binding (tested: 1000 ng/ml),0.129,3.42,0.219
